These are literature values, as cited in article PMC4010523.

The series concerns the target complement C5 (Homo sapiens) (UniProt P01031).

With Eculizumab, the equilibrium dissociation constant (Kd) was 120 pM.
